Results on one molecule are retold here after US20170315124A1 (ATTOGEN BIOMEDICAL SUZHOU, published 2017).

What is called Kd is the free concentration of one partner at which half of the binding sites on the other are occupied at equilibrium, for simple one-to-one binding.

Assay [1] addresses T1, His-HPV16 E7 recombinant fusion protein (HPV16, UniProt P03129 2-98).
T1 construct: also called recombinant protein HPV16 E7; not shown: His tag
T1 sequence: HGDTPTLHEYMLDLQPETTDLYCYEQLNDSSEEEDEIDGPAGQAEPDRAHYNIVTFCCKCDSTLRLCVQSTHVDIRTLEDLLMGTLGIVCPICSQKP
Put plainly: indirect ELISA, method of Beatty et al.; reference 1H11. (ELISA stands for enzyme-linked immunosorbent assay.)

In a further assay the target is T2, polypeptide HPV16 E7-1 (HPV16).
T2 peptide: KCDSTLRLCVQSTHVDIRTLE
Put plainly: indirect ELISA on coated peptide.

The target of assay [2] is T1, His-HPV16 E7 recombinant fusion protein. The assay can be described thus: indirect ELISA, method of Beatty et al.; reference 2G7.
Method: There were total 8 gradients and then ELISA test was conducted. The obtained values were plot into Kaff=(n−1)/2(n [Ab′]−[Ab]) to obtain the affinity constant. […] It means using the antibody concentration corresponding to half of the highest OD value (50% OD) on the curve through graphing method. In this equation, n=Ag/Ag′. Then each two of them were compared, when n=4, three K values could be obtained, when n=16, two K values could be obtained and when n=64, one K values could be obtained then calculate the average of these six values as the result.
Assay [3] shares this target. Put plainly: indirect ELISA, method of Beatty et al.; His-HPV16 E7 coated at 4 concentrations, 7B6 in 8 two-fold dilutions from 2 µg/ml; mean of 6 K values.
Assay [4] has as its target T3, GST-HPV16 L2 fusion protein (HPV16, UniProt P03107 1-473).
T3 construct: Specificity control antigen in the ELISA; also called recombinant protein HPV16 L2; not shown: glutathione S-transferase (GST) fusion partner
T3 sequence: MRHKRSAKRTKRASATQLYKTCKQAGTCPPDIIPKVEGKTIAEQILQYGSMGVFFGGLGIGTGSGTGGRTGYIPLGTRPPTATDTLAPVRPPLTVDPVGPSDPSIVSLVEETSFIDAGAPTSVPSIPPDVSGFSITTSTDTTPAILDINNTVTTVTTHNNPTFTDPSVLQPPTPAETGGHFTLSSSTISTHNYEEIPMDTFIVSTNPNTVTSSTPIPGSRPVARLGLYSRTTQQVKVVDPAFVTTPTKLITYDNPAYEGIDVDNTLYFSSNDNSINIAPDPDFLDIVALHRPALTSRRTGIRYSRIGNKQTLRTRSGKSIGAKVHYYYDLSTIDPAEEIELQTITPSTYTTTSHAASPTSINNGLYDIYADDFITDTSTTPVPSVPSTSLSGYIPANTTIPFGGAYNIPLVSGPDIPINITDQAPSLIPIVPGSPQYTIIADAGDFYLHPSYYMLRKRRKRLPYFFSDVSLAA
The assay can be described thus: indirect ELISA on coated antigen.

B1: anti-HPV16 E7 monoclonal antibody 7B6 (antibody, V domains shown)
VH: VKLQESGPELVKPGASMKISCKASGYSFTGSTMNWVKQSHGKNLEWIGLIDPYNGVIRYNQKFKGRATLTIDKSSSTAYMELLSLTSDDSAVYYCARKLRYWGQGTTLTVSS
VL: ATQSPSSLNVSPGEKVTMSCKSSQSLLNSGNQRNYLAWYQQKPGQPPKLLIYGASTRESGVPDRFTGSGSGTDFTLTISSVQAEDLAVYYCQNDLSYPLTFGAGTKLELK
notes: also called mAb anti-HPV16E7 7B6
As to B1, in assay [1], the “fold of binding affinity over 1H11” value was 5 fold. The binding result with polypeptide HPV16 E7-1 is recorded as “no binding”; in assay [4] it was “no binding (tested: 7B6 1 µg/ml; antigen coated at 2 µg/ml)”. The “fold of binding affinity over 2G7” value in assay [2] turned out to be 2 fold. In addition, in assay [3], the Kd was found to be 0.64 nM.
